First the molecules themselves.
B1: recombinant human LRG1 (leucine-rich alpha-2 glycoprotein 1), residues V36-Q347, untagged, glycosylated (ligand)
chain: VTLSPKDCQVFRSDHGSSISCQPPAEIPGYLPADTVHLAVEFFNLTHLPANLLQGASKLQELHLSSNGLESLSPEFLRPVPQLRVLDLTRNALTGLPPGLFQASATLDTLVLKENQLEVLEVSWLHGLKALGHLDLSGNRLRKLPPGLLANFTLLRTLDLGENQLETLPPDLLRGPLQLERLHLEGNKLQVLGKDLLLPQPDLRYLFLNGNKLARVAAGAFQGLRQLDMLDLSNNSLASVPEGLWASLGQPNWDMRDGFDISGNPWICDQNLSDLYRWLQAQKDKMFSQNDTRCAGPEAVKGQTLLAVAKSQ
modifications: glycosyl groups at T37 (O-linked), N79, N186, N269 and N325 (N-linked), numbered on SEQ ID NO: 1
notes: also called wild-type LRG1; wild LRG1

Experiment [1] addresses T1, recombinant Lectin-Olfactomedin-like domains of human LPHN1 (human, UniProt O94910 25-398, limits assumed).
T1 construct: domain: Lectin-Olfactomedin-like domains; also called Lec/Olf domains of LPHN1; Lec-Olf domains of LPHN1
T1 sequence (looked up): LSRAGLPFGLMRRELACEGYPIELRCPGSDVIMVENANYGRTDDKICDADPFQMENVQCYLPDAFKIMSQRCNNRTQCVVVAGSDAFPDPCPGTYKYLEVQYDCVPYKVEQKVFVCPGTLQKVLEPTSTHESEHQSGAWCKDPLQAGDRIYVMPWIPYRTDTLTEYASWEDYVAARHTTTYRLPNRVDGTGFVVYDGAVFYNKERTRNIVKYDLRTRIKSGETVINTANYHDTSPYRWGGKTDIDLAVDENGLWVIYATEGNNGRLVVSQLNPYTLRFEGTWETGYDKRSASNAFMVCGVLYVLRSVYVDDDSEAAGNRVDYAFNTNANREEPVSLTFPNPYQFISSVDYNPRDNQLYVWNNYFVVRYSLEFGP
Briefly: solid-phase binding assay (ELISA), plate coated with 100 nM Lec-Olf domain. As for the experimental part:
(§1) FIG. 8E: results of solid phase binding assay to evaluate binding of wild-type LRG1 and DG-LRG1 to the Lec-Olf domains of LPHN1 and LPHN3. The plates were coated with Lec-Olf domains (100 nM) of LPHN1 and LPHN3. After washing and blocking, different amounts (0.001, 0.005, 0.01, 0.05, 0.1, 0.5, 1, 5 and 10 μM) of wild-type LRG1 or DG-LRG1 were added and LRG1 or DG-LRG1 bound to coated proteins were detected by ELISA using anti-LRG1 antibody and anti-mouse secondary antibody.
Background: In an ELISA, binding on a coated surface is turned into a signal by an enzyme label.

Experiment [2] concerns the target T2, recombinant Lectin-Olfactomedin-like domains of human LPHN3 (human, UniProt Q9HAR2 20-393, limits assumed).
T2 construct: domain: Lectin-Olfactomedin-like domains; also called Lec/Olf domains of LPHN3; Lec-Olf domains of LPHN3
T2 sequence (looked up): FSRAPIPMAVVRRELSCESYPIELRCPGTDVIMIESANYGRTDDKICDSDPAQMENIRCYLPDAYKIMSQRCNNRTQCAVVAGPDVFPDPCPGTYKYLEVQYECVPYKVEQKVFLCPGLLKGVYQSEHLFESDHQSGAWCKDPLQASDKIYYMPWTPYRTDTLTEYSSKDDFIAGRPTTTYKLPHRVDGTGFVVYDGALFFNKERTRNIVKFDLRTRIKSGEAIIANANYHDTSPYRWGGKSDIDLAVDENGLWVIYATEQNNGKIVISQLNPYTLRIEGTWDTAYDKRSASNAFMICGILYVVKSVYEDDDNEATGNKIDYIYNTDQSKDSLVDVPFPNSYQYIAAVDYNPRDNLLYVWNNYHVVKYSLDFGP
Described as above. As for the experimental part:
as §1

The target of experiment [3] is T3, recombinant human LPHN2 lectin-olfactomedin-like domain, residues F26-P394 (human, UniProt O95490 26-394).
T3 construct: range 26-394; Coated on the plate at 100 nM; also called LPHN2 Lec/Olf domains; Lec-Olf domain
T3 sequence (looked up): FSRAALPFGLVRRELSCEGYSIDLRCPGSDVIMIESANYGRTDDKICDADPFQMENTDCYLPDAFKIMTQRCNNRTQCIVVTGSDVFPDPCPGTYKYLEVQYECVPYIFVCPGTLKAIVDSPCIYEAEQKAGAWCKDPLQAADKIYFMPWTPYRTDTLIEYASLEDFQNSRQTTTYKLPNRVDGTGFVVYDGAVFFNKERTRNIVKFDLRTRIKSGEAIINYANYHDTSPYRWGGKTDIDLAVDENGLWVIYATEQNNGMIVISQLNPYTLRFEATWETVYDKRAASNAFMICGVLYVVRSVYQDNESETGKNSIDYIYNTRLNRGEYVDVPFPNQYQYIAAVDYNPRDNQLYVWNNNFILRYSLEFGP
In words: solid-phase binding assay (ELISA), plate coated with LPHN2 Lec/Olf domains. The method, then: (§2) Solid phase binding analysis was performed by a known method (Mol Cancer Ther 14, 470-479 (2015)). LPHN2 extracellular domain variants (Lec, Olf, GAIN/GPS domain; 100 nM) were added to MaxiSorp 96-well plates (Nunc) and incubated at room temperature for 1 hour. The wells were washed twice with PBS and then incubated with 1% bovine serum albumen (BSA) for 2 hours. After blocking, various amounts (0.001, 0.005, 0.01, 0.05, 0.1, 0.5, 1, 5 or 10 μM) of wild-type LRG1 or DG-LRG1 were added to 96-well plates coated with the indicated LPHN2 extracellular domain variants. LRG1 bound to the coated protein was detected by ELISA using an anti-LRG1 antibody (Cat #sc517443, Santa Cruz) and a peroxidase-conjugated anti-mouse secondary antibody (Cat #62-6520, Thermo Fisher Scientific).
Whether or not deglycosylation of LRG1 (DG-LRG1) affects the binding affinity to LPHN2 in vitro (FIG. 7B) and ex vivo (FIGS. 7C and 8C) was determined. […] Cell surface binding rates of LRG1 and DG-LRG1 in HUVEC and HEK293T cells were evaluated and verified again (Table 3, FIGS. 7C and 8C)

The target in experiment [4] is B1. In words: solid-phase binding assay (ELISA), plate coated with LPHN2 ectodomain variants. The method, then: as §2

As usually defined, the Kd is a measure of binding affinity in units of concentration. As to B1, the binding result in experiment [1] and in experiment [2] was “no binding (tested: 0.001 to 10 µM added)” each time. Besides, the equilibrium dissociation constant (Kd) in experiment [3] amounted to 920 nM.

B2: deglycosylated LRG1 (LRG1 treated with PNGase F) (ligand)
chain: VTLSPKDCQVFRSDHGSSISCQPPAEIPGYLPADTVHLAVEFFNLTHLPANLLQGASKLQELHLSSNGLESLSPEFLRPVPQLRVLDLTRNALTGLPPGLFQASATLDTLVLKENQLEVLEVSWLHGLKALGHLDLSGNRLRKLPPGLLANFTLLRTLDLGENQLETLPPDLLRGPLQLERLHLEGNKLQVLGKDLLLPQPDLRYLFLNGNKLARVAAGAFQGLRQLDMLDLSNNSLASVPEGLWASLGQPNWDMRDGFDISGNPWICDQNLSDLYRWLQAQKDKMFSQNDTRCAGPEAVKGQTLLAVAKSQ
modifications: N-linked glycans removed with PNGase F (sites N79, N186, N269, N325 on SEQ ID NO: 1)
notes: For FACS it was conjugated with Alexa 647; also called DG-LRG1; deglycosylated form
For B2, the binding result in experiment [1] and in experiment [2] was “no binding (tested: 0.001 to 10 µM added)” in each case. Further, the Kd in experiment [3] is 450 nM.

B3: recombinant human LPHN2 olfactomedin-like domain, residues V135-P394 (receptor, UniProt O95490 135-394, looked up)
chain: VCPGTLKAIVDSPCIYEAEQKAGAWCKDPLQAADKIYFMPWTPYRTDTLIEYASLEDFQNSRQTTTYKLPNRVDGTGFVVYDGAVFFNKERTRNIVKFDLRTRIKSGEAIINYANYHDTSPYRWGGKTDIDLAVDENGLWVIYATEQNNGMIVISQLNPYTLRFEATWETVYDKRAASNAFMICGVLYVVRSVYQDNESETGKNSIDYIYNTRLNRGEYVDVPFPNQYQYIAAVDYNPRDNQLYVWNNNFILRYSLEFGP
notes: range 135-394; Expressed with an Fc tag and released untagged with thrombin; also called Olf domain of LPHN2
Consider B3, for which the binding result in experiment [4] is given as “binds”.

The values above are taken from patent publication US20240083959A1 (INSTITUTE FOR BASIC SCIENCE, published 2024).
